Results published in publication PMC10643139.

Legend:
Test in all cases: NanoBRET
[1] = target: Halo-SSX-C (HaloTag fused to the SSX1 C-terminal region present in SS18-SSX1); conditions: live HEK293T cells; mean ± S.E.M of n = 3 biological replicates; parent: est. 72; read off a plot
[2] = target: Halo-SSX-C^E184* (SSX-C mutant lacking the last five amino acids); conditions: live HEK293T cells; mean ± S.E.M of n = 3 biological replicates; parent: est. 40; read off a plot
[3] = target: Halo-SSX-C^ΔRD (SSX-C with a deletion of the SSXRD); conditions: live HEK293T cells; mean ± S.E.M of n = 3 biological replicates; parent: est. 19; read off a plot

Question: Which response [1] does the source give for “histone H2A fused to NanoLuc luciferase (NLuc-H2A) (from UniProt P0C0S8) K118R; K119R” here?
Answer: Its response is 42 mBU.

Question: And the response [2]?
Answer: The response was 36 mBU.

Question: What about the response [3] of the same substance?
Answer: The response was 16 mBU.
